# Measurements: US20030215880A1 (Scripps Research, published 2003)
# Tests used:
# [1] = molecular target: T1, PrP^c, cellular isoform of the mouse prion protein (mouse, UniProt P04925 23-230); test: immunoprecipitation from normal mouse brain homogenate, positive control
# [2] = molecular target: T1, PrP^c, cellular isoform of the mouse …; test: immunoprecipitation from normal mouse brain homogenate, western blot
# T1 sequence (P04925 23-230 limits assumed): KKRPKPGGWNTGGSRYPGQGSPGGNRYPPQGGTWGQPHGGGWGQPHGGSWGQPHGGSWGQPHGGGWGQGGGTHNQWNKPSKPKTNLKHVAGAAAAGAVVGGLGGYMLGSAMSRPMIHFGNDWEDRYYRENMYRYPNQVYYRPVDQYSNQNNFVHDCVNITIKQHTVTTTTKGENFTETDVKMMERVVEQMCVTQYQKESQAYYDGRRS
Binder,binding result [1],binding result [2]
"Fab D13 (Fab, V domains shown) VH: VQLLEQSGAELVKPGASVKLSCTTSGLNIEDYYIHWVKQRPEQGLEWIGRIDPENGETLYAPEFQGKATITADTSSNTVYLQLRSLTSEDTAIYYCGRFDGNGWYLDVWGAGTTVTVSS VL: not shown",binds,–
"Fab b12 (Fab, V domains shown) VH: QVQLVQSGAEVKKPGASVKVSCQASGYRFSNFVIHWVRQAPGQRFEWMGWINPYNGNKEFSAKFQDRVTFTADTSANTAYMELRSLRSADTAVYYCARVGPYSWDDSPQDNYYMDVWGKGTTVIVSS VL: EIVLTQSPGTLSLSPGERATFSCRSSHSIRSRRVAWYQHKPGQAPRLVIHGVSNRASGISDRFSGSGSGTDFTLTITRVEPEDFALYYCQVYGASSYTFGQGTKLERKR",–,no binding
"IgG1 b12 (antibody, V domains shown, Human IgG1) VH: QVQLVQSGAEVKKPGASVKVSCQASGYRFSNFVIHWVRQAPGQRFEWMGWINPYNGNKEFSAKFQDRVTFTADTSANTAYMELRSLRSADTAVYYCARVGPYSWDDSPQDNYYMDVWGKGTTVIVSS VL: EIVLTQSPGTLSLSPGERATFSCRSSHSIRSRRVAWYQHKPGQAPRLVIHGVSNRASGISDRFSGSGSGTDFTLTITRVEPEDFALYYCQVYGASSYTFGQGTKLERKR",–,no binding
